In EP4692116A1 (Kexing Biopharm Co., Ltd., dated 2026):

Experiments:
[1] = biological target: ARTN protein (Novoprotein, Cat# CR34) (human) (UniProt Q5T4W7); assay: ELISA, ARTN coated, antibody from 2,000 nM, anti-human Fc-HRP detection
[2] = biological target: GDF15-Biotin protein (KACTUS, Cat# GDF-HM215B) (human) (UniProt Q99988); assay: blocking ELISA: GFRAL coated, 20 ng/mL GDF15-Biotin with titrated antibody, Streptavidin-HRP
[3] = biological target: human GDF15 protein (Novoprotein, Cat# DRA26) (human) (UniProt Q99988); assay: ELISA, human GDF15 coated, anti-human Fc-HRP detection
[4] = biological target: Human GDNF protein (Novoprotein, Cat# C226) (human) (UniProt P39905); assay: ELISA, GDNF coated, antibody from 2,000 nM, anti-human Fc-HRP detection
[5] = biological target: human GDF15 protein (Novoprotein, Cat# DRA26) (human) (UniProt Q99988); assay: cell-based or functional assay
[6] = biological target: T1, human GDF15 protein (Novoprotein, Cat# DRA26) (human, UniProt Q99988 197-308); assay: cell-based or functional assay
T1 sequence (looked up): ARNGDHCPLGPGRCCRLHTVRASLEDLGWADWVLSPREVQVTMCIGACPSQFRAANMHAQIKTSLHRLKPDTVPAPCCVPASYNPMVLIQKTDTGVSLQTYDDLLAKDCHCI

[7] = biological target: T2, Human GDNF protein (Novoprotein, Cat# C226) (human, UniProt P39905 78-211); assay: ELISA, GDNF coated, antibody from 2,000 nM
T2 construct: Bought protein
T2 sequence (looked up): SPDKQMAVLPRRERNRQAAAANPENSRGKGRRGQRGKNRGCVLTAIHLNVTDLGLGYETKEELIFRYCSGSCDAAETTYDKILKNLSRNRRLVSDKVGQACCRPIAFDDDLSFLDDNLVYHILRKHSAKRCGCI

[8] = biological target: T1, human GDF15 protein (Novoprotein, Cat# …); assay: ELISA, human GDF15 coated, anti-human Fc-HRP detection
[9] = biological target: T3, GDF15-Biotin protein (KACTUS, Cat# GDF-HM215B) (human, UniProt Q99988 197-308, limits assumed, biotin (site not stated)); assay: blocking ELISA: GFRAL coated, 20 ng/mL GDF15-Biotin with titrated antibody, Streptavidin-HRP
T3 construct: Bought biotinylated protein; also called human GDF15
T3 sequence (looked up): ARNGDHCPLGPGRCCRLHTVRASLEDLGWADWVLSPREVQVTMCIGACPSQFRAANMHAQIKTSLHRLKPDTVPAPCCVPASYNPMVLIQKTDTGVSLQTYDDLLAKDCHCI

Sequence of ARTN protein (Novoprotein, Cat# CR34) (human) (Q5T4W7 108-220 limits assumed): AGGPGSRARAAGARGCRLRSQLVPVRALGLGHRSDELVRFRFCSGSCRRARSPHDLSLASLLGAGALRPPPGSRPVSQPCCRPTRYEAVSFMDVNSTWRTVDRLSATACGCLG

## PF-06946860 (Pfizer GDF15 monoclonal antibody, positive control)
[1]
  EC50: 97.1 nM
[2]
  IC50: 0.11 nM
[3]
  EC50: 0.0974 nM
[4]
  EC50: 278 nM
[5]
  IC50 of GDF15 reporter gene activity: 0.0475 nM

## CTL002 (CatalYm humanized GDF15 monoclonal antibody, positive control)
[2]
  IC50: 1.5 nM
[3]
  EC50: 0.0933 nM
[5]
  IC50 of GDF15 reporter gene activity: 1.99 nM

B1: LN05 GDF15 heavy chain single-domain antibody (full-length, VHH joined to human IgG1 Fc) (antibody, V domains shown)
VH: QVQLVESGGGLVQPGGSLRLSCAASGFTLDYYAIGWFRQAPGKGREGVSCISSNDGSTYYSDSVKGRFTTSRDNAKNTVYLQMNSLKPEDTAVYYCAADLTPCPVNPSVDHYWGQGTQVTVSS
notes: expressed in CHO cells, Protein A purified; No light chain; also called LN05 full-length
[6]
  IC50 of GDF15 reporter gene activity: 0.0778 nM
[7]
  binding result: binds
[8]
  EC50: 0.0912 nM
[9]
  IC50: 0.221 nM

B2: LN13 GDF15 heavy chain single-domain antibody (full-length, VHH joined to human IgG1 Fc) (antibody, V domains shown)
VH: QLQLVESGGGLVQPGGSLRLSCAASGFTLDYYAIGWFRQAPGKGPEAVSCISSSDGSTYYSDSVKGRFTISRDNAKNTVYLQMNSLKPEDTAVYYCAAGEYGSDCPVQVGSWGQGTQVTVSS
notes: expressed in CHO cells; No light chain; also called LN13 full-length
[6]
  IC50 of GDF15 reporter gene activity: 0.0719 nM
[7]
  binding result: binds
[8]
  EC50: 0.0858 nM
[9]
  IC50: 0.147 nM

B3: LN11 GDF15 heavy chain single-domain antibody (VHH joined to human IgG1 Fc) (antibody, V domains shown)
VH: QVQLVESGGGLVQPGGSLRLSCAASGFTIRTYTMSWYRQAPGKERALVAYITPGGPTYHIDSVKGRFTISRNNAENTVYLQMNSLKPEDTAVYYCGNGFGSWGQGTQVTVSS
[8]
  EC50: 0.382 nM

B4: LN14 GDF15 heavy chain single-domain antibody (full-length, VHH joined to human IgG1 Fc) (antibody, V domains shown)
VH: QVQLVESGGGLVQPGGSLRLACAASGFTLDAYAVGWFRQAPGKNPEGVSCISSSDGSAYYADSVKGRFTISRDNAKNTVYLQMNSLKPGDTAVYYCAADLSCPVQIATFHSRGQGTQVTVSS
notes: expressed in CHO cells; No light chain; also called LN14 full-length
[6]
  IC50 of GDF15 reporter gene activity: 0.0701 nM
[8]
  EC50: 0.0988 nM
[9]
  IC50: 0.16 nM

B5: LN06 GDF15 heavy chain single-domain antibody (full-length, VHH joined to human IgG1 Fc) (antibody, V domains shown)
VH: QLQLVESGGGLVQPGGSLRLSCVASGFTLDDYAIGWFRQAPGKGLEGVSCISSSDESTYYADSVKGRFTISRDNAKNTAYLQMNSLKPEDTAIYYCAADTECPVQVTSMAWGQGTQVTVSS
notes: expressed in CHO cells; No light chain; also called LN06 full-length
[6]
  IC50 of GDF15 reporter gene activity: 0.0705 nM
[7]
  binding result: binds
[8]
  EC50: 0.0832 nM
[9]
  IC50: 0.175 nM

B6: LN25 GDF15 heavy chain single-domain antibody (full-length, VHH joined to human IgG1 Fc) (antibody, V domains shown)
VH: QLQLVESGGGEVQPGGSLRLSCAASGATLDDLSIGWFRQAPGKGLEGVSCISSSDGSTYYADSVKGRFTISRDNAKNTAYLQMNSLRPEDTAVYYCAADREDCPVQPWGIVAGTSRGQGTQVTVSS
notes: expressed in CHO cells; No light chain; also called LN25 full-length
[6]
  IC50 of GDF15 reporter gene activity: 0.0735 nM
[7]
  binding result: binds
[8]
  EC50: 0.0892 nM
[9]
  IC50: 0.171 nM
